Data taken from patent publication US20170088600A1 (published 2017).
Where a chain is given by its changes, count along the chain named. Numbers in names are those of the source.

T1: mouse TRAIL expressed on transiently transfected 293T cells (mouse, UniProt P50592 1-291)
T1 construct: whole, on cells; also called mTRAIL; mouse (m) TRAIL
T1 sequence (looked up): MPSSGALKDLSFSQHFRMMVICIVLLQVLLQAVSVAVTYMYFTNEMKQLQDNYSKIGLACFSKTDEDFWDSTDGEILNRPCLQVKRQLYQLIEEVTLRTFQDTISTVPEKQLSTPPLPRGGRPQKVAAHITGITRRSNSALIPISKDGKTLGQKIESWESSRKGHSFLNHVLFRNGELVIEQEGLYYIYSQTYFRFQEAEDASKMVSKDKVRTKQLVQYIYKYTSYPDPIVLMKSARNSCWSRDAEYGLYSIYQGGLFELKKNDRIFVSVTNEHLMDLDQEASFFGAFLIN

B1: mouse TRAIL-R2:Fc (extracellular domain of mouse TRAIL-R2 fused to human IgG constant domain) (Fc fusion, UniProt Q9QZM4 53-180, looked up)
chain: NPAHNRPAGLQRPEESPSRGPCLAGQYLSEGNCKPCREGIDYTSHSNHSLDSCILCTVCKEDKVVETRCNITTNTVCRCKPGTFEDKDSPEICQSCSNCTDGEEELTSCTPRENRKCVSKTAWASWHK
notes: extracellular domain; also called mTRAIL-R2:Fc; not shown: printed only as the human IgG VH constant domain; subclass, limits and linker no
B2: TRAIL-R2-Fc K155A (Fc fusion, human, not shown: a dimerising Fc or GST)
chain: QQDLAPQQRAAPQQKRSSPSEGLCPPGHHISEDGRDCISCKYGQDYSTHWNDLLFCLRCTRCDSGEVELSPCTTTRNTVCQCEEGTFREEDSPEMCRACRTGCPRGMVKVGDCTPWSDIECVHKESGLVPRGS
notes: range 58-184
B3: TRAIL-R2-Fc M152A/R154A/K155A (Fc fusion, human, not shown: a dimerising Fc or GST)
chain: B2 chain with M95A, R97A
notes: range 58-184; also called M152/R154/K155
B4: TRAIL-R2-Fc F112A (Fc fusion, human, not shown: a dimerising Fc or GST)
chain: B2 chain with F55A, A98K
notes: range 58-184
B5: TRAIL-R2-Fc E151A (Fc fusion, human, not shown: a dimerising Fc or GST)
chain: B2 chain with E94A, A98K
notes: range 58-184
B6: TRAIL-R2-Fc M152A (Fc fusion, human, not shown: a dimerising Fc or GST)
chain: B2 chain with M95A, A98K
notes: range 58-184
B7: TRAIL-R2-Fc P150A (Fc fusion, human, not shown: a dimerising Fc or GST)
chain: B2 chain with P93A, A98K
notes: range 58-184
B8: TRAIL-R2-Fc L110A/L114A (Fc fusion, human, not shown: a dimerising Fc or GST)
chain: B2 chain with L53A, L57A, A98K
notes: range 58-184; also called L110/L114
B9: TRAIL-R2-Fc Y103A/R133A (Fc fusion, human, not shown: a dimerising Fc or GST)
chain: B2 chain with Y46A, R76A, A98K
notes: range 58-184; also called Y103/R133
B10: TRAIL-R2-Fc V167A (Fc fusion, human, not shown: a dimerising Fc or GST)
chain: B2 chain with A98K, V110A
notes: range 58-184
B11: TRAIL-R2-Fc Y103A/N134A (Fc fusion, human, not shown: a dimerising Fc or GST)
chain: B2 chain with Y46A, N77A, A98K
notes: range 58-184; also called Y103/N134
B12: TRAIL-R2-Fc D148A (Fc fusion, human, not shown: a dimerising Fc or GST)
chain: B2 chain with D91A, A98K
notes: range 58-184

Legend:
[1] = target: T1, mouse TRAIL expressed on transiently …; assay: flow cytometry on 293T cells transfected with mouse TRAIL
[2] = target: T2, TRAIL (TNFSF10) ectodomain (UniProt P50591 39-281, limits assumed); assay: SPR, mutant TRAIL-R2-Fc captured, TRAIL as analyte
T2 construct: extracellular domain; also called endogenous TRAIL; TRAIL ectodomain
T2 sequence (P50591 39-281 limits assumed): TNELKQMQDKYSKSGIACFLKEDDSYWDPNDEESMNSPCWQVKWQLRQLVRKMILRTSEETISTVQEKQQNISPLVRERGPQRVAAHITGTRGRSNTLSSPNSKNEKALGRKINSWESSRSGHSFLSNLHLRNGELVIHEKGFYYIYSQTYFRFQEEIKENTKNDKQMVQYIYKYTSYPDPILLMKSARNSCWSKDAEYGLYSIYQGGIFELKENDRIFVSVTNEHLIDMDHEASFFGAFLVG

Row | Binder | binding result [1] | Kd [2] [nM] | koff [2] [s⁻¹] | kon [2] [M⁻¹ s⁻¹] | binding result [2]
1 | B1 | binds | – | – | – | –
2 | B2 | – | 39.7 | 0.000138 | 3480 | –
3 | B3 | – | – | – | – | no binding
4 | B4 | – | 3.94 | 9.86e-06 | 2500 | –
5 | B5 | – | – | – | – | no binding (tested: up to 1 µM ligand)
6 | B6 | – | 202 | 0.000678 | 3350 | –
7 | B7 | – | 4.29 | 9.02e-06 | 2100 | –
8 | B8 | – | – | – | – | no binding
9 | B9 | – | – | – | – | no binding
10 | B10 | – | 4.35 | 9.57e-06 | 2200 | –
11 | B11 | – | – | – | – | no binding
12 | B12 | – | 4.48 | 3.58e-05 | 8000 | –
